Measured values: patent publication US9708383 (Novo Nordisk, dated 2017)
*1 amine or outer side, *2 acyl side, *3 side chain or, on linkers, in order; H or OH if unused. Where no end group is shown, it is not given here. Side-chain parts run from the residue outwards. The star is where a group is joined. Decanoyl(10-(4-HOOC-PhO)) = O=C(O)c1ccc(OCCCCCCCCCC(=O)*)cc1; γGlu = O=C(O)[C@H](CCC(=O)[*:2])N[*:1]; 13‑carboxytridecanoyl = C14 diacid; AEEA = NCCOCCOCC(=O)O

B1: GLP-1 derivative of Example 97: [Lys,Glu22,Arg34]-GLP-1-(7-37)-peptide (peptide)
peptide: HAEGTFTSDVSK([AEEA-AEEA-γGlu-γGlu-13‑carboxytridecanoyl])YLEEQAAK([AEEA-AEEA-γGlu-γGlu-13‑carboxytridecanoyl])EFIAWLVRGRG
notes: Name prints Lys without its number (Lys18)

Each binder was assayed against T1, human GLP-1 receptor (human, UniProt P43220 24-463) (assay: SPA, 2.0% vs 0.005% HSA).
T1 construct: whole, on cells; Used as purified membranes of the transfected hamster cells, not whole cells; also called hGLP-1
Protocol: (§1) A shift in the binding affinity, $IC50$, is an indication that the derivative in question binds to albumin, and thereby a prediction of a potential protracted pharmacokinetic profile of the derivative in question in animal models.
(§2) 25 ul (microliter) of test compounds are added to Optiplate. HSA ("high albumin" experiment containing 2% HSA), or buffer ("low albumin" experiment containing 0.005% HSA), was added (50 ul). 5-10 µg protein/sample was added (50 ul) corresponding to 0.1-0.2 mg protein/ml (to be preferably optimised for each membrane preparation). SPA-particles (Wheatgerm agglutinin SPA beads, Perkin Elmer, #RPNQ0001) were added in an amount of 0.5 mg/well (50 ul). […] The plates were sealed with PlateSealer and incubated for 120 minutes at 30° C. while shaking. The plates were centrifuged (1500 rpm, 10 min) and counted in Topcounter.
For HAEGTFTSDVSK([AEEA-AEEA-γGlu-13‑carboxytridecanoyl])YLEEQAAK([AEEA-AEEA-γGlu-13‑carboxytridecanoyl])EFIAWLVQGRG [GLP-1 derivative of Example 54: [Lys18,Glu22,Gln34]-GLP-1-(7-37)-peptide], the “ratio IC50 high HSA/IC50 low HSA” value was over 1. In the case of HAEGTFTSDVSK([γGlu-AEEA-AEEA-13‑carboxytridecanoyl])YLEEQAVREFIAK([γGlu-AEEA-AEEA-13‑carboxytridecanoyl])LVQGRG [GLP-1 derivative of Example 56: [Lys18,Glu22,Val25,Arg26,Lys31,Gln34]-GLP-1-(7-37)-peptide], the “ratio IC50 high HSA/IC50 low HSA” value is reported as over 1. HAEGTFTSDVSK([AEEA-AEEA-γGlu-Decanoyl(10-(4-HOOC-PhO))])YLEEQAVREFIAK([AEEA-AEEA-γGlu-Decanoyl(10-(4-HOOC-PhO))])LVRGRG [GLP-1 derivative of Example 75: [Lys18,Glu22,Val25,Arg26,Lys31,Arg34]-GLP-1-(7-37)-peptide] was tested, and the “ratio IC50 high HSA/IC50 low HSA” value was over 1. In the case of HAEGTFTSDVSK([AEEA-AEEA-γGlu-13‑carboxytridecanoyl])YLEEQAAHK([AEEA-AEEA-γGlu-13‑carboxytridecanoyl])FIAWLVRGRG [GLP-1 derivative of Example 60: [Lys18,Glu22,His26,Lys27,Arg34]-GLP-1-(7-37)-peptide], the “ratio IC50 high HSA/IC50 low HSA” value is reported as over 1. HAEGTFTSDVSK([γGlu-AEEA-AEEA-13‑carboxytridecanoyl])YLEEQAVREFIAK([γGlu-AEEA-AEEA-13‑carboxytridecanoyl])LVRGRG [GLP-1 derivative of Example 55: [Lys18,Glu22,Val25,Arg26,Lys31,Arg34]-GLP-1-(7-37)-peptide] was tested, and the “ratio IC50 high HSA/IC50 low HSA” value was over 1. In the case of HAEGTFTSDVSK([AEEA-AEEA-γGlu-13‑carboxytridecanoyl])YLEGQAAREFIAK([AEEA-AEEA-γGlu-13‑carboxytridecanoyl])LVRGRG [GLP-1 derivative of Example 70: [Lys18,Arg26,Lys31,Arg34]-GLP-1-(7-37)-peptide], the “ratio IC50 high HSA/IC50 low HSA” value is reported as over 1. For HAEGTFTSDVSK([AEEA-AEEA-γGlu-Decanoyl(10-(4-HOOC-PhO))])YLEGQAAHK([AEEA-AEEA-γGlu-Decanoyl(10-(4-HOOC-PhO))])FIAWLVQGRG [GLP-1 derivative of Example 67: [Lys18,His26,Lys27,Gln34]-GLP-1-(7-37)-peptide], the “ratio IC50 high HSA/IC50 low HSA” value was over 1. In the case of HAEGTFTSDVSK([AEEA-AEEA-γGlu-13‑carboxytridecanoyl])YLEGQAVREFIAK([AEEA-AEEA-γGlu-13‑carboxytridecanoyl])LVRGRG [GLP-1 derivative of Example 77: [Lys18,Val25,Arg26,Lys31,Arg34]-GLP-1-(7-37)-peptide], the “ratio IC50 high HSA/IC50 low HSA” value is reported as over 1. With B1 the “ratio IC50 high HSA/IC50 low HSA” value was over 1. In the case of HAEGTFTSDVSK([γGlu-AEEA-AEEA-Decanoyl(10-(4-HOOC-PhO))])YLEGQAAK([γGlu-AEEA-AEEA-Decanoyl(10-(4-HOOC-PhO))])EFIAWLVRGRG [GLP-1 derivative of Example 106: [Lys18,Arg34]-GLP-1-(7-37)-peptide], the “ratio IC50 high HSA/IC50 low HSA” value is reported as over 1. HAEGTFTSDVSK([AEEA-AEEA-γGlu-γGlu-γGlu-13‑carboxytridecanoyl])YLEEQAVREFIAK([AEEA-AEEA-γGlu-γGlu-γGlu-13‑carboxytridecanoyl])LVRGRG [GLP-1 derivative of Example 101: [Lys18,Glu22,Val25,Arg26,Lys31,Arg34]-GLP-1-(7-37)-peptide] was tested, and the “ratio IC50 high HSA/IC50 low HSA” value was over 1. For HAEGTFTSDVSK([AEEA-AEEA-γGlu-13‑carboxytridecanoyl])YLEEQAVRK([AEEA-AEEA-γGlu-13‑carboxytridecanoyl])FIAHLVQGRG [GLP-1 derivative of Example 118: [Lys18,Glu22,Val25,Arg26,Lys27,His31,Gln34]-GLP-1-(7-37)-peptide], the “ratio IC50 high HSA/IC50 low HSA” value was over 1. With HAEGTFTSDVSK([γGlu-AEEA-AEEA-γGlu-13‑carboxytridecanoyl])YLEEQAVREFIAK([γGlu-AEEA-AEEA-γGlu-13‑carboxytridecanoyl])LVRGRG [GLP-1 derivative of Example 111: [Lys18,Glu22,Val25,Arg26,Lys31,Arg34]-GLP-1-(7-37)-peptide] the “ratio IC50 high HSA/IC50 low HSA” value was over 1. HAEGTFTSDVSK([AEEA-AEEA-γGlu-Decanoyl(10-(4-HOOC-PhO))])YLEGQAVREFIAK([AEEA-AEEA-γGlu-Decanoyl(10-(4-HOOC-PhO))])LVRGRG [GLP-1 derivative of Example 107: [Lys18,Val25,Arg26,Lys31,Arg34]-GLP-1-(7-37)-peptide] was tested, and the “ratio IC50 high HSA/IC50 low HSA” value was over 1.

What follows are binders tested against T1, human GLP-1 receptor (assay: SPA, displacement of 125I-GLP-1(7-36)NH2, 0.005% HSA).
Protocol: as §1, §2
With HAEGTFTSDVSK([AEEA-AEEA-γGlu-13‑carboxytridecanoyl])YLEEQAAK([AEEA-AEEA-γGlu-13‑carboxytridecanoyl])EFIAWLVQGRG [GLP-1 derivative of Example 54: [Lys18,Glu22,Gln34]-GLP-1-(7-37)-peptide] the IC50 was under 1000 nM. Work on HAEGTFTSDVSK([γGlu-AEEA-AEEA-13‑carboxytridecanoyl])YLEEQAVREFIAK([γGlu-AEEA-AEEA-13‑carboxytridecanoyl])LVQGRG [GLP-1 derivative of Example 56: [Lys18,Glu22,Val25,Arg26,Lys31,Gln34]-GLP-1-(7-37)-peptide] yielded an IC50 of under 1000 nM. HAEGTFTSDVSK([AEEA-AEEA-γGlu-Decanoyl(10-(4-HOOC-PhO))])YLEEQAVREFIAK([AEEA-AEEA-γGlu-Decanoyl(10-(4-HOOC-PhO))])LVRGRG [GLP-1 derivative of Example 75: [Lys18,Glu22,Val25,Arg26,Lys31,Arg34]-GLP-1-(7-37)-peptide] gave an IC50 of under 1000 nM. In the case of HAEGTFTSDVSK([AEEA-AEEA-γGlu-13‑carboxytridecanoyl])YLEEQAAHK([AEEA-AEEA-γGlu-13‑carboxytridecanoyl])FIAWLVRGRG [GLP-1 derivative of Example 60: [Lys18,Glu22,His26,Lys27,Arg34]-GLP-1-(7-37)-peptide], the IC50 is reported as under 1000 nM. HAEGTFTSDVSK([γGlu-AEEA-AEEA-13‑carboxytridecanoyl])YLEEQAVREFIAK([γGlu-AEEA-AEEA-13‑carboxytridecanoyl])LVRGRG [GLP-1 derivative of Example 55: [Lys18,Glu22,Val25,Arg26,Lys31,Arg34]-GLP-1-(7-37)-peptide] showed an IC50 of under 1000 nM. In the case of HAEGTFTSDVSK([AEEA-AEEA-γGlu-13‑carboxytridecanoyl])YLEGQAAREFIAK([AEEA-AEEA-γGlu-13‑carboxytridecanoyl])LVRGRG [GLP-1 derivative of Example 70: [Lys18,Arg26,Lys31,Arg34]-GLP-1-(7-37)-peptide], the IC50 is reported as under 1000 nM. HAEGTFTSDVSK([AEEA-AEEA-γGlu-Decanoyl(10-(4-HOOC-PhO))])YLEGQAAHK([AEEA-AEEA-γGlu-Decanoyl(10-(4-HOOC-PhO))])FIAWLVQGRG [GLP-1 derivative of Example 67: [Lys18,His26,Lys27,Gln34]-GLP-1-(7-37)-peptide] was tested, and the IC50 was under 1000 nM. Work on HAEGTFTSDVSK([AEEA-AEEA-γGlu-13‑carboxytridecanoyl])YLEGQAVREFIAK([AEEA-AEEA-γGlu-13‑carboxytridecanoyl])LVRGRG [GLP-1 derivative of Example 77: [Lys18,Val25,Arg26,Lys31,Arg34]-GLP-1-(7-37)-peptide] yielded an IC50 of under 1000 nM. Work on B1 yielded an IC50 of under 1000 nM. Binder HAEGTFTSDVSK([γGlu-AEEA-AEEA-Decanoyl(10-(4-HOOC-PhO))])YLEGQAAK([γGlu-AEEA-AEEA-Decanoyl(10-(4-HOOC-PhO))])EFIAWLVRGRG [GLP-1 derivative of Example 106: [Lys18,Arg34]-GLP-1-(7-37)-peptide] has an IC50 of under 1000 nM. Binder HAEGTFTSDVSK([AEEA-AEEA-γGlu-γGlu-γGlu-13‑carboxytridecanoyl])YLEEQAVREFIAK([AEEA-AEEA-γGlu-γGlu-γGlu-13‑carboxytridecanoyl])LVRGRG [GLP-1 derivative of Example 101: [Lys18,Glu22,Val25,Arg26,Lys31,Arg34]-GLP-1-(7-37)-peptide] has an IC50 of under 1000 nM. HAEGTFTSDVSK([AEEA-AEEA-γGlu-13‑carboxytridecanoyl])YLEEQAVRK([AEEA-AEEA-γGlu-13‑carboxytridecanoyl])FIAHLVQGRG [GLP-1 derivative of Example 118: [Lys18,Glu22,Val25,Arg26,Lys27,His31,Gln34]-GLP-1-(7-37)-peptide] gave an IC50 of under 1000 nM. HAEGTFTSDVSK([γGlu-AEEA-AEEA-γGlu-13‑carboxytridecanoyl])YLEEQAVREFIAK([γGlu-AEEA-AEEA-γGlu-13‑carboxytridecanoyl])LVRGRG [GLP-1 derivative of Example 111: [Lys18,Glu22,Val25,Arg26,Lys31,Arg34]-GLP-1-(7-37)-peptide] was tested, and the IC50 was under 1000 nM. Binder HAEGTFTSDVSK([AEEA-AEEA-γGlu-Decanoyl(10-(4-HOOC-PhO))])YLEGQAVREFIAK([AEEA-AEEA-γGlu-Decanoyl(10-(4-HOOC-PhO))])LVRGRG [GLP-1 derivative of Example 107: [Lys18,Val25,Arg26,Lys31,Arg34]-GLP-1-(7-37)-peptide] has an IC50 of under 1000 nM.
